# Measured values taken from IntAct's records for PubMed 17721446.
# B1: DNA repair protein RAD9 (Saccharomyces cerevisiae), P14737 (parent)
# chain: MSGQLVQWKSSPDRVTQSAIKEALHSPLADGDMNEMNVPVDPLENKVNSTNIIEGSPKANPNPVKFMNTSEIFQKSLGLLDESPRHDDELNIEVGDNDRPNANILHNERTPDLDRIANFFKSNRTPGKENLLTKYQSSDLEDTPLMLRKKMTFQTPTDPLEQKTFKKLKSDTGFCYYGEQNDGEENASLEVTEADATFVQMAERSADNYDCALEGIVTPKRYKDELSKSGGMQDERVQKTQIMISAESPNSISSYDKNKITGNGRTTRNVNKVFNNNEDNIGAIEEKNPVKKKSENYSSDDLRERNNQIIQSNESEEINELEKNLNVSGRENDVNNLDIDINSAVSGTPSRNNAEEEMYSSESVNNREPSKKWIFRYSKDKTENNSNRSTQIVNNPRTQEMPLDSISIDTQPLSKSFNTETNNELETQIIVSSLSQGISAQKGPVFHSTGQTEEIKTQIINSPEQNALNATFETPVTLSRINFEPILEVPETSSPSKNTMSKPSNSSPIPKEKDTFNIHEREVETNNVFSNDIQNSSNAATRDDIIIAGSSDFNEQKEITDRIYLQLSGKQISDSGSDETERMSPNELDTKKESTIMSEVELTQELPEVEEQQDLQTSPKKLVVEEETLMEIKKSKGNSLQLHDDNKECNSDKQDGTESLDVALIEHESKGQSSELQKNLMQLFPSESQEIIQNRRTIKRRQKDTIEIGEEEENRSTKTSPTKHLKRNSDLDAASIKREPSCSITIQTGETGSGKDSKEQSYVFPEGIRTADNSFLSKDDIIFGNAVWCQYTWNYKFYPGILLEVDTNQDGCWIYFETGRSLTKDEDIYYLDIRIGDAVTFDGNEYVVVGLECRSHDLNIIRCIRGYDTVHLKKKNASGLLGKRTLIKALSSISLDLSEWAKRAKIILEDNEKNKGDAYRYLRHPIRGRKSMTNVLSPKKHTDDEKDINTHTEVYNNEIESSSEKKEIVKKDSRDALAEHAGAPSLLFSSGEIRTGNVFDKCIFVLTSLFENREELRQTIESQGGTVIESGFSTLFNFTHPLAKSLVNKGNTDNIRELALKLAWKPHSLFADCRFACLITKRHLRSLKYLETLALGWPTLHWKFISACIEKKRIVPHLIYQYLLPSGESFRLSLDSPSKGGIIKSNNIFSFYTQFLRGSNLRDQICGVKKMLNDYIVIVWGRSELDSFVKFAFACLSAGRMLTIDLPNIDVDDTEPLLNALDSLVPRIGSELSNRKLKFLIYANENNGKSQMKLLERLRSQISLKFKKFNYIFHTESKEWLIQTIINEDTGFHDDITDNDIYNTISEVR
# Variants of: B1
# Conditions: with h2a1_yeast HTA1, P04911
# h2a1_yeast HTA1, P04911, sequence (P04911 whole entry): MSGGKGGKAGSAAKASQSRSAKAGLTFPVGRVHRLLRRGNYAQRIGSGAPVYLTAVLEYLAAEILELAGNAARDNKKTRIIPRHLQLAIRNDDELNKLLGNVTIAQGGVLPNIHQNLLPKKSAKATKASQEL
row,effect of a mutation on the interaction,Variant
1,disrupting interaction,K1088M
